From patent US20090048117

Tests used:
[1] = system: T1, GST-NIP45 fusion protein (bacterially expressed, full length NIP45)
T1 sequence: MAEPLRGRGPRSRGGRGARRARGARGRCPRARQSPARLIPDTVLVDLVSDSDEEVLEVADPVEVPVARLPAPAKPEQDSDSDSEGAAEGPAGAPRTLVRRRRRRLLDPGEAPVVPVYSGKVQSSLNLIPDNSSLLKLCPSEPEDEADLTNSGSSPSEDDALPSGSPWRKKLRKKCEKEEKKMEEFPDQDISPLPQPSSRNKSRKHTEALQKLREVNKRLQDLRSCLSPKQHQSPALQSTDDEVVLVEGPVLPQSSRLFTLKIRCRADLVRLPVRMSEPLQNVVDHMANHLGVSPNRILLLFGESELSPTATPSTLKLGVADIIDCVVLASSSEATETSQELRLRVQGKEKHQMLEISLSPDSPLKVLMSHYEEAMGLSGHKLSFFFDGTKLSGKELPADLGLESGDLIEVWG

Substance	in vitro methylation assay with affinity purified PRMTs and GST-NIP45 [1]	in vitro methylation assay with recombinant proteins (Histone H3)
Flag epitope tagged CARM1 immunoprecipitated from 293 cell extracts	In this assay, only PRMT1 was capable of methylating NIP45	
Flag epitope tagged PRMT3 immunoprecipitated from 293 cell extracts	In this assay, only PRMT1 was capable of methylating NIP45	
Flag epitope tagged PRMT5 immunoprecipitated from 293 cell extracts	In this assay, only PRMT1 was capable of methylating NIP45	
GST-CARM1		CARM1 did methylate histone H3 (lane 7)
